The nature of data set [1]: Hydrolysis assay of peptide-drug conjugates in rat plasma (free drug by LC/MS). The format is in vitro ADME. To be noted: 37° C.
The nature of data set [2]: Hydrolysis assay of peptide-drug conjugates in PBS (free Dex by LC/MS). The format is physicochemical. To be noted: 37° C. The procedure:
In order to determine hydrolysis rates, conjugates can be diluted in PBS, rat plasma, or human plasma and incubated at 37 degrees. Samples can be taken at designated time-points (e.g., 1, 2, 3, 5, 10, 15, 20, 25, 30, 45, 60, or 90 minutes and/or hours after administration). Internal standards such as triamcinolone acetonide (TAA) can be added as an internal standard, and then active agent/TAA can be extracted using acetonitrile, for example. The samples can be dried down, reconstituted, and analyzed by LC/MS. Data can be normalized using Dex AUC/TAA AUC. Percent hydrolysis can be calculated using the average ratio for active agent AUC/TAA AUC at a time point of maximal drug release. A general method can include using a lyophilized, purified peptide-drug conjugates reconstituted in DMSO following production to generate stock solution at 20 mg/mL. Each conjugate stock can be brought to 0.25 mg/mL in each hydrolysis condition (1×DPBS, human plasma and rat plasma) in triplicate and rocked at 37° C. To quantitate free active agent, 100 μl of the hydrolyzed conjugate solution can be transferred into 1 mL acetonitrile at 4° C. at which time all plasma proteins and intact conjugates can precipitate. This can be performed repeatedly to generate a series of time points (0 hr, 0.5 hr, 1 hr, 2 hr, 4 hr, 6 hr, 8 hr, 24 hr, 32 hr). The acetonitrile solution can be spun at 17,000 g for 5 minutes, and the supernatant removed and added to a 96 well block. The pellet can then be resuspended in 500 μl acetonitrile and re-pelleted as before. The supernatant can be removed and added to the same well in the block. Samples can be prepared for analysis by drying under a nitrogen stream followed by reconstitution in 110 μl 45:55 ACN:Citrate 10 mM pH 5.5. To ensure optimal recovery the block can be shaken via plate shaker at 7,000 rpm for 5 minutes during the reconstitution step. Prior to LC/MS the samples can be transferred to a 96 well plate and centrifuged at 6,500 g for 15 minutes. Analysis can be performed on an Agilent 1260 Infinity series HPLC with inline 6120 single quad MS using acetonitrile, water (+0.1% TFA) gradient (shown below) on an InfinityLab Poroshell SB-C18 column. Quantification of free active agent (or drug) can be achieved through integration of active agent peaks of the TIC.
Lyophilized, purified peptide-drug conjugates were reconstituted in DMSO following production to generate stock solution at 20 mg/mL. Each conjugate stock was brought to 0.25 mg/mL in each hydrolysis condition (1×DPBS, human plasma and rat plasma) in triplicate and rocked at 37° C.
To quantitate free dexamethasone (Dex), 100 μl of the hydrolyzed conjugate solution was transferred into 1 mL acetonitrile at 4° C. at which time all plasma proteins and intact conjugates precipitated. This was performed repeatedly to generate a series of time points (0 hr, 0.5 hr, 1 hr, 2 hr, 4 hr, 6 hr, 8 hr, 24 hr, 32 hr). The corticosteroid triamcinolone acetonide (25 μl, 0.1 mg/mL in 45:55 ACN:Citrate 10 mM pH 5.5) was supplemented into the acetonitrile solution as an internal standard. The acetonitrile solution was spun at 17,000 g for 5 minutes, and the supernatant removed and added to a 96 well block. The pellet was resuspended in 500 μl acetonitrile and re-pelleted as before. The supernatant was removed and added to the same well in the block.
Samples were prepared for analysis by drying under a nitrogen stream followed by reconstitution in 110 μl 45:55 ACN:Citrate 10 mM pH 5.5. To ensure optimal recovery the block was shaken via plate shaker at 7,000 rpm for 5 minutes during the reconstitution step. Prior to LC/MS the samples were transferred to a 96 well plate and centrifuged at 6,500 g for 15 minutes. Analysis was performed on an Agilent 1260 Infinity series HPLC with inline 6120 single quad MS using a gradient of 0.1% TFA in acetonitrile (solvent B), and 0.1% TFA (aq) (solvent A) gradient (shown below) on an InfinityLab Poroshell SB-C18 column. […]

Data set [3] relates to CIA rats. The format is in vivo. To be noted: 0.05 mg/kg on study day 0 and day 1. The procedure: A study was conducted in CIA rats to address the following: 1) functionality and duration of effect for peptide(SEQ ID NO: 105)-carbamate-Dex at 0.2 mg/kg as compared to Dex alone at the same dose; 2) functionality and duration of effect for peptide(SEQ ID NO: 105)-DMA-Dex at 0.05 mg/kg as compared to Dex alone at the same dose; 3) systemic markers of Dex exposure in rats treated with each PDC and Dex at their respective doses (FIG. 16B-FIG. 16G).
CIA was induced as described above in EXAMPLE 21. Rats were enrolled in the study following onset of arthritis in at least one ankle and randomly assigned into one of five treatment groups (vehicle; peptide-carbamate 0.2 mg/kg; Dex 0.2 mg/kg; peptide-DMA conjugate 0.05 mg/kg; Dex 0.05 mg/kg) with 5 rats per group. Treatment was administered on study day 0 and study day 1 and rats were euthanized on study day 7. The primary read-out in this cohort was change in ankle diameter during and after treatment, as a measure of functionality and duration of effect. […] The primary read-out for this cohort was measures of systemic exposure to Dex which included thymus weight, spleen weight, total white blood cell counts, lymphocyte counts, and change in body weight.

For data set [4], the system named is CIA rats. The format is in vivo. The procedure:
Ankle diameter measurements were recorded daily starting on induction day 9 and continuing for the duration of the study. […] Each treatment was administered on the day of enrollment (study day 0) and repeated daily for 7 days (study day 6). Rats were euthanized 3 h after the final dose and blood and organs were collected for testing.

Where [5] appears, read: 0.05 mg/kg daily for 7 days, study day 6.

Read-outs that look alike come from different tables or passages of the source. Positions of bridges follow the written chain, without caps; N, C: chain ends. Residues, ends and D or L forms follow the SMILES beside them. *: point of attachment. X1 = CC(CCC(C)C(=O)*)C(=O)OCC(=O)[C@@]1(O)[C@H](C)C[C@H]2[C@@H]3CCC4=CC(=O)C=C[C@]4(C)[C@@]3(F)[C@@H](O)C[C@@]21C

One may read the half-life as the time needed for the level to fall by half in the phase considered. Consider `CC[C@H](C)[C@@H]1NC(=O)[C@@H]2CSSC[C@H](NC(=O)[C@H](CCCNC(=N)N)NC(=O)[C@@H](NC(=O)[C@H](CC(N)=O)NC(=O)[C@@H](NC(=O)[C@@H]3CCCN3C(=O)[C@@H](NC(=O)CNC(=O)[C@H](CO)NC(=O)CNC(=O)C(C)CCC(C)C(=O)OCC(=O)[C@@]3(O)[C@H](C)C[C@H]4[C@@H]5CCC6=CC(=O)C=C[C@]6(C)[C@@]5(F)[C@@H](O)C[C@@]43C)C(C)C)[C@@H](C)CC)C(C)C)C(=O)N[C@@H](CCCNC(=N)N)C(=O)NCC(=O)N[C@@H](CO)C(=O)N[C@@H](CCCNC(=N)N)C(=O)N[C@@H](CC(=O)O)C(=O)N[C@H]3CSSC[C@H](NC(=O)[C@H](CCCNC(=N)N)NC(=O)[C@H](CO)NC(=O)[C@H](CC(N)=O)NC1=O)C(=O)N[C@@H](Cc1c[nH]cn1)C(=O)N[C@H](C(=O)N[C@H](C(=O)N1CCC[C@H]1C(=O)O)[C@@H](C)O)CSSC[C@H](NC(=O)[C@@H]1CCCN1C(=O)[C@H](CC(=O)O)NC(=O)[C@H](CC(C)C)NC3=O)C(=O)N[C@@H](CCCNC(=N)N)C(=O)N[C@@H](CCCNC(=N)N)C(=O)N[C@@H](C)C(=O)NCC(=O)N[C@@H](CCSC)C(=O)N[C@@H](CCCNC(=N)N)C(=O)N[C@@H](Cc1ccccc1)C(=O)NCC(=O)N[C@@H](CCCNC(=N)N)C(=O)N2` (stereo partly drawn) [Compound 27, peptide(SEQ ID NO: 105)-[dimethyladipic acid]-Dex] (X1-GSGVPINVRCRGSRDCLDPCRRAGMRFGRCINSRCHCTP-OH; disulfide 10-30, 16-35, 20-37 (inferred); C-terminus assumed), for which the half-life at 0.25 mg/mL in data set [1] (Rat Plasma, release of free Dex, time points to 32 hr, read-out: Half-life (hours) as measured in the hydrolysis experiments (converted)) was 9.9 h. In data set [1] (in rat plasma, free Dex, read-out: Hydrolysis half-life (converted)), the half-life at 0.25 mg/mL is 9.9 h. In addition, the “Half-life (hours) as measured in the hydrolysis experiments” value in data set [2] (PBS, release of free Dex, time points to 32 hr) was “undetectable ≤32”. For the same compound, in data set [2] (in PBS, free Dex), the Hydrolysis half-life result is “No Dex release ≤32 h”. Further, the “ankle diameter as compared to vehicle; magnitude and duration of effect” value in the data set with CIA rats [3] is “significant reduction”. Besides, in the data set with CIA rats [4] (0.05 mg/kg), the “plasma lymphocyte counts as compared to DexSP” value is listed as “significantly higher” and the “spleen weight as compared to DexSP” value is on record as “significantly higher”. Besides, in the data set on CIA rats [4] (setting [5]), the “plasma lymphocyte counts as compared to vehicle” value was “significantly reduced”, the “spleen weight as compared to vehicle” value is “significantly reduced” and the “thymus weight as compared to vehicle” value was “significantly reduced”. Further, the ankle inflammation result in the data set with CIA rats [4] (highest dose of 0.05 mg/kg daily for 7 days) is on record as “effective at reducing ankle inflammation”. The ankle inflammation entry in the data set on CIA rats [4] (lower doses (0.001, 0.005, 0.01 mg/kg) daily for 7 days) was “indistinguishable from vehicle”.

The record behind these values is patent US20210252159A1, “CONJUGATES OF CARTILAGE-HOMING PEPTIDES” (priority 2018, published 2021).
